The record followed here is patent US20090280138A1 (OXFORD BIOMEDICA UK, published 2009).

The target in assay [1] is T1, MHC class I molecule HLA-B*0702 (iTopia plate-bound monomer) (biotin (bound to streptavidin-coated plate)).
T1 construct: Commercial iTopia system; also called B7
As to the kind of experiment: iTopia off-rate assay, 37 C; fit R^2 0.66. The procedure: (§1) The 9 mers were tested for Peptide Binding, Off Rate and Affinity using iTopia Epitope Discovery System in accordance with the manufacturer's instructions. Briefly, 96 well microtitre plates coated with MHC molecules representing different MHC alleles are used to identify candidate peptides. […] Determinations are performed in duplicate using an ELISA plate reader and included allele specific positive controls.
(§2) A one-phase exponential decay curve, with a plateau given equal to 0, was generated using GraphPad Prism® software, which calculated the t1/2 and goodness-of-fit, as measured by r², for each peptide.

In assay [2] the target is T2, MHC class I molecule HLA-A*0301 (iTopia plate-bound monomer) (biotin (bound to streptavidin-coated plate)).
T2 construct: also called A3
The assay is described as follows: iTopia off-rate assay, 37 C; fit R^2 0.95. The procedure: as §1, §2

Assay [3] concerns the target T3, MHC class I molecule HLA-A*0201 (iTopia plate-bound monomer) (biotin (bound to streptavidin-coated plate)).
T3 construct: also called A2
As to the kind of experiment: iTopia off-rate assay, 37 C; fit R^2 0.59. The procedure: as §1, §2

Assay [4] deals with T3, MHC class I molecule HLA-A*0201 (iTopia …). As to the kind of experiment: iTopia off-rate assay, 37 C; fit R^2 0.6. Here is the method:
as §1, §2

Assay [5] has as its target T2, MHC class I molecule HLA-A*0301 (iTopia …). As to the kind of experiment: iTopia off-rate assay, 37 C; fit R^2 0.94. Here is the method:
as §1, §2

Assay [6] addresses T1, MHC class I molecule HLA-B*0702 (iTopia …). The assay is described as follows: iTopia off-rate assay, 37 C; fit R^2 0.75. Here is the method:
as §1, §2

The target of assay [7] is T3, MHC class I molecule HLA-A*0201 (iTopia …). The assay is described as follows: iTopia off-rate assay, 37 C; fit R^2 0.9. Here is the method:
as §1, §2

In assay [8] the target is T2, MHC class I molecule HLA-A*0301 (iTopia …). As to the kind of experiment: iTopia off-rate assay, 37 C; fit R^2 0.58. Here is the method: as §1, §2
Assay [9] addresses T3, MHC class I molecule HLA-A*0201 (iTopia …). The assay is described as follows: iTopia off-rate assay, 37 C; fit R^2 0.95. Here is the method: as §1, §2
Assay [10] deals with T4, MHC class I molecule HLA-A*0101 (iTopia plate-bound monomer) (biotin (bound to streptavidin-coated plate)).
T4 construct: also called A1
As to the kind of experiment: iTopia off-rate assay, 37 C; fit R^2 0.88. Here is the method:
as §1, §2

Assay [11] deals with T4, MHC class I molecule HLA-A*0101 (iTopia …). The assay is described as follows: iTopia off-rate assay, 37 C; fit R^2 0.97. The procedure:
as §1, §2

The target in assay [12] is T3, MHC class I molecule HLA-A*0201 (iTopia …). The assay is described as follows: iTopia off-rate assay, 37 C; fit R^2 0.74. The procedure:
as §1, §2

Assay [13] deals with T2, MHC class I molecule HLA-A*0301 (iTopia …). As to the kind of experiment: iTopia off-rate assay, 37 C; fit R^2 0.88. Here is the method:
as §1, §2

The target in assay [14] is T3, MHC class I molecule HLA-A*0201 (iTopia …). As to the kind of experiment: iTopia off-rate assay, 37 C; fit R^2 0.66. The procedure:
as §1, §2

The target in assay [15] is T1, MHC class I molecule HLA-B*0702 (iTopia …). As to the kind of experiment: iTopia off-rate assay, 37 C; fit R^2 0.22. The procedure:
as §1, §2

Assay [16] deals with T3, MHC class I molecule HLA-A*0201 (iTopia …). As to the kind of experiment: iTopia off-rate assay, 37 C; fit R^2 0.83. Here is the method: as §1, §2
Assay [17] shares this target. As to the kind of experiment: iTopia off-rate assay, 37 C; fit R^2 0.98. The procedure: as §1, §2
Assay [18] has as its target T1, MHC class I molecule HLA-B*0702 (iTopia …). As to the kind of experiment: iTopia off-rate assay, 37 C; fit R^2 0.91. The procedure: as §1, §2
Assay [19] deals with T3, MHC class I molecule HLA-A*0201 (iTopia …). The assay is described as follows: iTopia off-rate assay, 37 C; fit R^2 0.91. The procedure: as §1, §2
Assay [20] has as its target T4, MHC class I molecule HLA-A*0101 (iTopia …). As to the kind of experiment: iTopia off-rate assay, 37 C; fit R^2 0.87. The procedure:
as §1, §2

Assay [21] addresses T3, MHC class I molecule HLA-A*0201 (iTopia …). As to the kind of experiment: iTopia off-rate assay, 37 C; fit R^2 0.68. The procedure: as §1, §2
Assay [22] addresses T1, MHC class I molecule HLA-B*0702 (iTopia …). The assay is described as follows: iTopia off-rate assay, 37 C; fit R^2 0.15. The procedure:
as §1, §2

For assay [23], the target named is T3, MHC class I molecule HLA-A*0201 (iTopia …). As to the kind of experiment: iTopia off-rate assay, 37 C; fit R^2 0.65. Here is the method:
as §1, §2

Assay [24] addresses T1, MHC class I molecule HLA-B*0702 (iTopia …). The assay is described as follows: iTopia off-rate assay, 37 C; fit R^2 0.11. Here is the method: as §1, §2
In assay [25] the target is T3, MHC class I molecule HLA-A*0201 (iTopia …). As to the kind of experiment: iTopia off-rate assay, 37 C; fit R^2 0.49. The procedure:
as §1, §2

Assay [26] shares this target. The assay is described as follows: iTopia off-rate assay, 37 C; fit R^2 0.33. The procedure:
as §1, §2

The target of assay [27] is T1, MHC class I molecule HLA-B*0702 (iTopia …). As to the kind of experiment: iTopia off-rate assay, 37 C; fit R^2 0.42. Here is the method:
as §1, §2

In assay [28] the target is T4, MHC class I molecule HLA-A*0101 (iTopia …). The assay is described as follows: iTopia off-rate assay, 37 C; fit R^2 0.25. Here is the method: as §1, §2
Assay [29] addresses T3, MHC class I molecule HLA-A*0201 (iTopia …). The assay is described as follows: iTopia off-rate assay, 37 C; fit R^2 0.67. Here is the method: as §1, §2
Assay [30] has as its target T1, MHC class I molecule HLA-B*0702 (iTopia …). As to the kind of experiment: iTopia off-rate assay, 37 C; fit R^2 0.02. The procedure:
as §1, §2

Assay [31] shares this target. As to the kind of experiment: iTopia off-rate assay, 37 C; fit R^2 0.84. The procedure: as §1, §2
Assay [32] deals with T3, MHC class I molecule HLA-A*0201 (iTopia …). As to the kind of experiment: iTopia off-rate assay, 37 C; fit R^2 0.63. Here is the method: as §1, §2
In assay [33] the target is T2, MHC class I molecule HLA-A*0301 (iTopia …). The assay is described as follows: iTopia off-rate assay, 37 C; fit R^2 0.9. The procedure: as §1, §2
Assay [34] concerns the target T3, MHC class I molecule HLA-A*0201 (iTopia …). As to the kind of experiment: iTopia off-rate assay, 37 C; fit R^2 0.57. The procedure: as §1, §2
The target in assay [35] is T1, MHC class I molecule HLA-B*0702 (iTopia …). The assay is described as follows: iTopia off-rate assay, 37 C; fit R^2 0.79. Here is the method: as §1, §2
Assay [36] shares this target. The assay is described as follows: iTopia off-rate assay, 37 C; fit R^2 0.36. The procedure: as §1, §2
For assay [37] the target is unchanged. The assay is described as follows: iTopia off-rate assay, 37 C; fit R^2 0.23. The procedure:
as §1, §2

Assay [38] addresses T3, MHC class I molecule HLA-A*0201 (iTopia …). The assay is described as follows: iTopia off-rate assay, 37 C; fit R^2 0.89. The procedure:
as §1, §2

The target in assay [39] is T1, MHC class I molecule HLA-B*0702 (iTopia …). The assay is described as follows: iTopia off-rate assay, 37 C; fit R^2 0.88. Here is the method:
as §1, §2

The target in assay [40] is T3, MHC class I molecule HLA-A*0201 (iTopia …). The assay is described as follows: iTopia off-rate assay, 37 C; fit R^2 0.05. The procedure:
as §1, §2

For the molecule RLRLARLAL (also called Peptide No 8) [5T4 9-mer peptide 8 RLRLARLAL], the t½ half life in assay [1] was 3.1 h; in assay [2], 0.2 h; in assay [3] it was 7.2 h.

For MHNIRDACR (also called Peptide No 193) [5T4 9-mer peptide 193 MHNIRDACR], the t½ half life in assay [4] is 5.3 h. Take RLDEVRAGA (also called Peptide No 65) [5T4 9-mer peptide 65 RLDEVRAGA]: the results for the t½ half life in assay [5], in [6] and in assay [3] were 0.2 h, 0.2 h and 9.7 h, respectively. Take VLPAGAFAR (also called Peptide No 53) [5T4 9-mer peptide 53 VLPAGAFAR]: the values for the t½ half life in assay [7] and in assay [8] were 2.2 h and 0.5 h, respectively. Turning to FSSSAPFLA (also called Peptide No 21) [5T4 9-mer peptide 21 FSSSAPFLA], the t½ half life in [9] was 0.3 h; in assay [10], 0.2 h. As to HMEGYHYRY (also called Peptide No 198) [5T4 9-mer peptide 198 HMEGYHYRY], the t½ half life stood at 1.3 h in assay [11], 6.3 h in assay [12] and 1.7 h in assay [13].

Consider GGCSRGPAA (also called Peptide No 2) [5T4 9-mer peptide 2 GGCSRGPAA], for which the t½ half life in assay [14] stood at 0.5 h; in [15], 1.3 h.

In the case of RNLTHLESL (also called Peptide No 128) [5T4 9-mer peptide 128 RNLTHLESL], the t½ half life in assay [16] turned out to be 0.9 h. GAFARRPPL (also called Peptide No 55) [5T4 9-mer peptide 55 GAFARRPPL]: the t½ half life in assay [17] came to 1.9 h; in assay [18], 1.3 h. As to VPTDLPAYV (also called Peptide No 43) [5T4 9-mer peptide 43 VPTDLPAYV], the t½ half life was 1.1 h in assay [19] and 1.8 h in [20].

RDACRDHME (also called Peptide No 195) [5T4 9-mer peptide 195 RDACRDHME] returned a t½ half life in [21] of 3 h.

DGRLRLARL (also called Peptide No 7) [5T4 9-mer peptide 7 DGRLRLARL] came in with a t½ half life in assay [22] of 2.6 h. SSFSSSAPF (also called Peptide No 20) [5T4 9-mer peptide 20 SSFSSSAPF] had a t½ half life in assay [23] of 0.4 h. For the molecule PPLAELAAL (also called Peptide No 58) [5T4 9-mer peptide 58 PPLAELAAL], the t½ half life in assay [24] is 3 h; in assay [25], 4.6 h. Consider LAELAALNL (also called Peptide No 59) [5T4 9-mer peptide 59 LAELAALNL], for which the t½ half life is 13.1 h in assay [26], 3.2 h in assay [27] and 2.5 h in [28]. On to APFLASAVS (also called Peptide No 23) [5T4 9-mer peptide 23 APFLASAVS], for which the t½ half life is 1.6 h in assay [29] and 2.6 h in [30]. For the molecule LAVLPAGAF (also called Peptide No 52) [5T4 9-mer peptide 52 LAVLPAGAF], the figures for the t½ half life in assay [31] and in [32] were 0.3 h and 3.6 h, respectively. Turning to YLNRKGIKK (also called Peptide No 188) [5T4 9-mer peptide 188 YLNRKGIKK], the t½ half life in assay [33] stood at 0.7 h; in [34], 6.5 h; in [35] it was 3.3 h. For the molecule ADPRLTNLS (also called Peptide No 204) [5T4 9-mer peptide 204 ADPRLTNLS], the t½ half life in [36] turned out to be 3.1 h. For SPTSSASSF (also called Peptide No 17) [5T4 9-mer peptide 17 SPTSSASSF], the t½ half life in assay [37] is 2.6 h.

As for LPSLRQLDL (also called Peptide No 71) [5T4 9-mer peptide 71 LPSLRQLDL], the t½ half life in assay [38] stood at 1.4 h; in [39], 3.1 h. As for IKKWMHNIR (also called Peptide No 191) [5T4 9-mer peptide 191 IKKWMHNIR], the t½ half life in [40] was 14.6 h.
